# According to patent US20240270857A1 (CHIA TAI TIANQING PHARMACEUTICAL GROUP, published 2024):
# T1: human IL-36R overexpressed on 293T-hIL36R-NFκB cells (human, UniProt Q9HB29 20-575)
# T1 sequence: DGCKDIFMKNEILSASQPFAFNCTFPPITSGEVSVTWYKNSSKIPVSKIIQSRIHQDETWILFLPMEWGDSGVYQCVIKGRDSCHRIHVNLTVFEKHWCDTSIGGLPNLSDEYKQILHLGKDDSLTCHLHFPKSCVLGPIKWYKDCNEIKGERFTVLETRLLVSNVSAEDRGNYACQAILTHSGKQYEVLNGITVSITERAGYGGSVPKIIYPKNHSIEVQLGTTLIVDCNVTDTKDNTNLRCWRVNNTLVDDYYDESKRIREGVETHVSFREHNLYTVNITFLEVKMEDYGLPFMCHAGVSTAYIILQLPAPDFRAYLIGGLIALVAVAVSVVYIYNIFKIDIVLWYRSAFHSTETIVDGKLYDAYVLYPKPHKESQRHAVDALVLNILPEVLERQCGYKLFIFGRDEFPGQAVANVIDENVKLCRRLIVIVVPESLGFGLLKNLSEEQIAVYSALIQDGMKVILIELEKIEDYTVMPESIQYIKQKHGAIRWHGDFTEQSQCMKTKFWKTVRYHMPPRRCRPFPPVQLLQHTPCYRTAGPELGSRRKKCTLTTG
# T2: IL-36R naturally expressed on OVCAR8 cells and on normal human epidermal keratinocytes (NHK cells) (human, UniProt Q9HB29 20-575)
# T2 sequence (looked up): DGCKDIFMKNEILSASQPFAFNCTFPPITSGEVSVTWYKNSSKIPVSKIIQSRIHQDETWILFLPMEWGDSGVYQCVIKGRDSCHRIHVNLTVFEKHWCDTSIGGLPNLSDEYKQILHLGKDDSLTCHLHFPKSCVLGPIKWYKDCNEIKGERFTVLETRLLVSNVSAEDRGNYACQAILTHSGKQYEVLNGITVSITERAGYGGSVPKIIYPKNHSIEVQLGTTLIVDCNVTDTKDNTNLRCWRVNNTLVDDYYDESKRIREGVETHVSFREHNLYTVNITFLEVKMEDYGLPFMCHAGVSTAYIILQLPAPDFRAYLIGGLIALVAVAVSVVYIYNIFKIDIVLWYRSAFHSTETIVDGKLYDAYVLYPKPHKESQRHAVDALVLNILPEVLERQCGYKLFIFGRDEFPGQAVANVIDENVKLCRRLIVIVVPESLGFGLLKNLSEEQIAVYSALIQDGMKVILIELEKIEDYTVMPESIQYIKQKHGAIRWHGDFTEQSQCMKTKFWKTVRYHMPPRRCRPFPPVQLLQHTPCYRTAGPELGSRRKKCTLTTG
# T3: CynoIL36R-ECD mFc recombinant protein (cynomolgus monkey)
# T3 construct: Made in ExpiCHO, purified on Protein A; also called cynomolgus IL-36R extracellular region with mouse antibody heavy chain Fc
# T3 chain: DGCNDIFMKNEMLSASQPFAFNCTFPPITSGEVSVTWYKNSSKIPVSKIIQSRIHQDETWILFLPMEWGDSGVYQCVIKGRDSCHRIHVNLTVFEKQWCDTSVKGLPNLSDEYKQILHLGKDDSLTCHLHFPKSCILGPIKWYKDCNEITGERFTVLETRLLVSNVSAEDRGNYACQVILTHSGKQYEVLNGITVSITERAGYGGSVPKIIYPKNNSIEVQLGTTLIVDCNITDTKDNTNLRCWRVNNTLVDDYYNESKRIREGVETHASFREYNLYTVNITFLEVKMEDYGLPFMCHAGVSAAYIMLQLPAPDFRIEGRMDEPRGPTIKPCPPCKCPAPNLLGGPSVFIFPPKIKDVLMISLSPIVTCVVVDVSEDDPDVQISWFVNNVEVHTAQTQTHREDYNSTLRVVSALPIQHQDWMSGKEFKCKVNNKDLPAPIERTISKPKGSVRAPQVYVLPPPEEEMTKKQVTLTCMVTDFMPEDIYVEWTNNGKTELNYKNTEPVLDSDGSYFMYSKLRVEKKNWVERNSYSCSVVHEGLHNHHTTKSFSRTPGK
# T4: Human IL-1Rrp2/IL-1R6 protein, His Tag (ACROBiosystems, IL2-H52H6) (human, UniProt Q9HB29 20-335)
# T4 construct: Bought protein; the soluble protein is likely only the extracellular part; also called hIL-36R; human IL36R antigen; not shown: His tag
# T4 sequence: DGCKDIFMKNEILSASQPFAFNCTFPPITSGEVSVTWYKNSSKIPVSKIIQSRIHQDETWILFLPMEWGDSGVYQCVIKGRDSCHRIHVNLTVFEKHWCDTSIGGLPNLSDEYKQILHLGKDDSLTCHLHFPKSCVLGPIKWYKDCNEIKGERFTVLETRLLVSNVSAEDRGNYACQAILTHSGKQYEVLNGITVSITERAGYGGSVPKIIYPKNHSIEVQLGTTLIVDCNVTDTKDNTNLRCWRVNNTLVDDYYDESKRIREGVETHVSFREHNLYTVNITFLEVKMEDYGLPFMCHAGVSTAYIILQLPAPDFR
# Experiments:
# [1] = molecular target: T1, human IL-36R overexpressed on …; experiment: cell-based or functional assay
# [2] = molecular target: T2, IL-36R naturally expressed on OVCAR8 …; experiment: cell-based or functional assay
# [3] = molecular target: T2, IL-36R naturally expressed on OVCAR8 …; experiment: cell-based or functional assay; remark: listed apart in the source
# [4] = molecular target: T2, IL-36R naturally expressed on OVCAR8 …; experiment: cell-based or functional assay; remark: listed apart in the source
# [5] = molecular target: T3, CynoIL36R-ECD mFc recombinant protein; experiment: ELISA, plate coated with CynoIL36R-ECD mFc, HRP-protein A/G, OD450
# Procedure: (§1) The binding activity of anti-IL-36R antibodies to IL-36R was analyzed by ELISA using human IL-1Rrp2/IL-1R6 protein, His Tag (ACROBiosystems, IL2-H52H6) and CynoIL36R-ECD mFc (for detection of chimeric and humanized antibodies), and hIL36R-ECD hFc and CynoIL36R-ECD hFc protein (for detection of hybridoma antibodies) as antigens. A 96-well plate (Costar, 9018) was coated with 2 μg/mL antigen at 100 μL/well and incubated overnight at 4° C. After the 96-well plate was washed with a washing buffer (PBS containing 0.05% v/v Tween 20), a blocking buffer (PBS containing 2% bovine serum albumin) was added for blocking at 37° C. for 2 h. After the 96-well plate was washed with the washing buffer, 100 μL of the gradient diluted anti-IL-36R antibody of the present disclosure or the reference antibody BI655130 (the initial concentration of the antibody was 66 nM, 4-fold gradient dilution) was added to each well, and the plate was incubated at room temperature for 1 h. After the 96-well plate was washed with the washing buffer, 100 μL of horseradish peroxidase-conjugated recombinant protein A/G (TheroScientific, 32490) was added to each well, and the plate was incubated at room temperature for 1 h. After the 96-well plate was washed with the washing buffer, 100 μL of a TMB solution (Thermo, 00-4201-56) was added to each well, and the plate was incubated at room temperature for 2 min. Finally, 100 μL of a stop solution (2 N H₂SO₄) was added to each well to stop the reaction. Absorbance was read at 450 nm using a microplate reader (PE, Envision), the resulting data was analyzed using GraphPad Prism, and EC₅₀ was calculated. Binding EC₅₀ of the chimeric anti-IL-36R antibodies to hIL-36R in an ELISA assay is shown in FIG. 1. and binding EC₅₀ of the chimeric anti-IL-36R antibodies to CynoIL-36R in an ELISA assay is shown in FIG. 2. The binding of BI655130 is shown as a control, and the binding of IgG4 is shown as a negative control.
# [6] = molecular target: T4, Human IL-1Rrp2/IL-1R6 protein, His Tag …; experiment: ELISA, plate coated with human IL-1Rrp2/IL-1R6 His Tag, HRP-protein A/G, OD450
# Procedure: as §1
Binder,IC50 (M); hIL36α; NFκB-luciferase [1] [M],IC50 (M); hIL36αβγ; NFκB-luciferase [1] [M],IC50 (M); hIL36β; NFκB-luciferase [1] [M],IC50 (M); hIL36γ; NFκB-luciferase [1] [M],Maximum inhibition rate %; hIL36α; NFκB-luciferase [1] [%],Maximum inhibition rate %; hIL36αβγ; NFκB-luciferase [1] [%],Maximum inhibition rate %; hIL36β; NFκB-luciferase [1] [%],Maximum inhibition rate %; hIL36γ; NFκB-luciferase [1] [%],"IC50; IL-8 production of NHK cells stimulated with hIL36α, inhibition rate % [2] [pM]","IC50; IL-8 production of NHK cells stimulated with hIL36β, inhibition rate % [3] [pM]","IC50; IL-8 production of NHK cells stimulated with hIL36γ, inhibition rate % [4] [pM]",EC50 [5] [pM],EC50 [6] [pM]
"hz84C4-1.1 (antibody, human IgG4 S228P, kappa, V domains shown, Humanized, human IgG4 / kappa) VH: QVQLVQSGAEVKKPGASVKVSCKASGYFFTSYWMNWVRQAPGQGLEWMGMIHPYDSETRYAQKFQGRVTMTVDKSTSTVYMELSSLRSEDTAVYYCASSTTAFAYWGQGTLVTVSS VL: DIQMTQSPSSLSASVGDRVTITCRASQDIGNALNWYQQKPGKAPKRLIYATSSLDPGVPSRFSGSRSGTDFTLTISSLQPEDFATYYCLQYASSPYTFGQGTKVEIKR",8.82e-10,1.82e-09,9.28e-10,5.76e-10,84.1,61.2,85.3,83.5,–,–,–,–,–
"BI655130 (antibody, human IgG1, kappa, L234A L235A, also called Spesolimab) heavy: not shown light: QIVLTQSPGTLSLSPGERATMTCTASSSVSSSYFHWYQQKPGQAPRLWIYRTSRLASGVPDRFSGSGSGTDFTLTISRLEPEDAATYYCHQFHRSPLTFGAGTKLEIKRTVAAPSVFIFPPSDEQLKSGTASVVCLLNNFYPREAKVQWKVDNALQSGNSQESVTEQDSKDSTYSLSSTLTLSKADYEKHKVYACEVTHQGLSSPVTKSFNRGEC",1.75e-09,3.27e-09,2.21e-09,1.1e-09,83.6,63.3,85.2,81,74.1,248,38.7,1890,761

# Results, then the binder that gave them:
IC50 (M); hIL36α; NFκB-luciferase [1] [M],IC50 (M); hIL36αβγ; NFκB-luciferase [1] [M],IC50 (M); hIL36β; NFκB-luciferase [1] [M],IC50 (M); hIL36γ; NFκB-luciferase [1] [M],Maximum inhibition rate %; hIL36α; NFκB-luciferase [1] [%],Maximum inhibition rate %; hIL36αβγ; NFκB-luciferase [1] [%],Maximum inhibition rate %; hIL36β; NFκB-luciferase [1] [%],Maximum inhibition rate %; hIL36γ; NFκB-luciferase [1] [%],"IC50; IL-8 production of NHK cells stimulated with hIL36α, inhibition rate % [2] [pM]","IC50; IL-8 production of NHK cells stimulated with hIL36β, inhibition rate % [3] [pM]","IC50; IL-8 production of NHK cells stimulated with hIL36γ, inhibition rate % [4] [pM]",EC50 [5] [pM],EC50 [6] [pM],Binder
9.38e-10,~1.55e-09,7.66e-10,3.5e-10,85.7,54.4,83.1,84.7,–,–,–,–,–,"hz84C4-2.5 (antibody, human IgG4 S228P, kappa, V domains shown, Humanized, human IgG4 / kappa) VH: QVQLVQSGAEVKKPGASVKVSCKVSGYFFTSYWMNWVNQAPGQGLEWMGMIHPYDSETRLAQKFKGRVTMTVDKSTSTVYMELSSLRSEDTAVYYCASSTTAFAYWGQGTLVTVSS VL: DIQMTQSPSSLSASVGDRVTITCRASQDIGNALNWLQQKPGKAPKRLIYATSSLDPGVPSRFSGSRSGTDYTLTISSLQPEDFATYYCLQYASSPYTFGQGTKVEIKR"
–,–,–,–,–,–,–,–,159,474,48.6,3020,2620,"chimeric 72C1 antibody (antibody, human IgG4 S228P, kappa, Mouse variable regions on human IgG4 / kappa; also called xi72C1) heavy: not shown light: EILLTQSPAIMSATLGEKVTMSCRASSNVRYMYWYQLKSGASPKLWIYLTSNLASGVPARFSGSGSGTSYSLTISSVEAEDAATYFCQQFTTSPYTFGGGTKLEIKRTVAAPSVFIFPPSDEQLKSGTASVVCLLNNFYPREAKVQWKVDNALQSGNSQESVTEQDSKDSTYSLSSTLTLSKADYEKHKVYACEVTHQGLSSPVTKSFNRGEC"
–,–,–,–,–,–,–,–,–,848,125,21900,970,"chimeric 84C4 antibody (antibody, human IgG4 S228P, kappa, Mouse variable regions on human IgG4 / kappa; also called xi84C4) heavy: not shown light: DILMTQSPSSLSASLGERVSLTCRASQDIGNALNWLQQAPDGTIKRLIYATSSLDPGVPKRFSGSRSGSDYSLTISSLASEDFVYYYCLQYASSPYTFGGGTKLEIKRTVAAPSVFIFPPSDEQLKSGTASVVCLLNNFYPREAKVQWKVDNALQSGNSQESVTEQDSKDSTYSLSSTLTLSKADYEKHKVYACEVTHQGLSSPVTKSFNRGEC"
